Laboratory results taken from the DeepSol protein solubility set.

assay: soluble on expression in E. coli; label from the status in PepcDB or PDB records

Sequence	soluble on expression in E. coli
MREIVWVHSQRIAPYKTLILNEFCYYPLELDPTPFNALIFTSKNAVFSLLETLKNSPKLKMLQNIPAYALSEPTAKTLQDHHFKVAFMGEKAHGKEFVQEIFPLLEKKSVLYLRAKEIVSSLDTILLEHGIDFKQAVVYENKLKHLTLSEQNALKPKEKSILIFTAISHAKAFLHYFEFLENYTAISIGNTTALYLQEQGIPSYIAKKPSLEACLELALSLRIKEC	not soluble
MRGDDMHIYELVSRDRTHPVRIYLLHSEYWTEDEFYNLLLEAFQRSSASDWHLQILEVSKYLVTAHGFVEAGGLQEIGFPGELSKTEVRRRINAFLGKDRSD	soluble
MRGRAVSRNAIIGIVHRNAKLAAIGFGRAKSSPASEGSSTYTPEEIKLVADCLKAKRNYVQIAQRLALKSGRIISRFGVKSLIRRTPELNEIGFRGKKGRPSDKKKAAPGQLPGRLFIAATADIDRDPSAFDYLTRPAVRALASQPHFAAMRFVDCLPARCRAPLSYDLEERPGPDMLCCGHLAMPSRSYCAYHEIRLTARKAEFIAEAALEHHHHHH	not soluble
MRGSGPRDRGSNPRPATTPTALSYISLPTSDSTRWGGLAVARARGVVLGYRRGTNTQYPQHALVKLLLDDPRKAGLYVSGIAFYRDRYGNVYKGRVLRLHGRRGGVVVVKFNPPLPGQATGGVVEVVKAGGDGLEHHHHHH	not soluble
MRGSHHHHHHGIQMVSIAINGFGRIGRLVLRIALERKNIDVVAINDPFISVDYAAYMFKYDSTHGKYKGEVSHDGSNLIINGKKVAVFQEKDPATLPWGKLGVDIAVDSTGVFKELDSAQKHIDAGAKKVVITAPSKTAPMFVVGVNEDKYNGEKIVSNASCTTNCLAPIAKIINDEFGIEEGLMTTVHSITATQKTVDGPSHKDWRGGRTASGNIIPSSTGAAKAVGKVLPELQGKLTGMAFRVPTTDVSVVDLTVKLVKAATYDEIKAAVKKVSEGKLKDVVGYTEDAVVSSDFLGDTHSTIFDAAAGIQLSPKFVKLVAWYDNEYGYSTRVVDLVEHVA	soluble
MRGSHHHHHHGSACCASRDDWRCARSMHEFSAKDIDGHMVNLDKYRGFVCIVTNVASQCGKTEVNYTQLVDLHARYAECGLRILAFPCNQFGKQEPGSNEEIKEFAAGYNVKFDMFSKICVNGDDAHPLWKWMKIQPKGKGILGNAIKWNFTKFLIDKNGCVVKRYGPMEEPLVIEKDLPHYF	soluble
MRGSHHHHHHGSACMFSNKTRQDSIQKMQQEELDLLIIGGGITGAGVAVQAAASGIKTGLIEMQDFAEGTSSRSTKLVHGGIRYLKTFDVEVVADTVGERAVVQGIAPHIPKPDPMLLPIYEDEGATTFNMFSVKVAMDLYDKLANVTGTKYENYTLTPEEVLEREPFLKKEGLKGAGVYLDFRNNDARLVIDNIKKAAEDGAYLVSKMKAVGFLYEGDQIVGVKARDLLTDEVIEIKAKLVINTSGPWVDKVRNLNFTRPVSPKMRPTKGIHLVVDAKKLPVPQPTYFDTGKQDGRMVFAIPRENKTYFGTTDTDYQGDFTDPKVTQEDVDYLLDVINHRYPEANITLADIEASWAGLRPLLIGNSGSPSTISRGSSLEREPDGLLTLSGGKITDYRKMAEGALRLIRQLLKEEYGIETKEIDSKKYQISGGNFDPTKLEETVTELAKEGVAAGLEEEDATYIADFYGTNARRIFELAKEMAPYPGLSLAESARLRYGLEEEMVLAPGDYLIRRTNHLLFERDQLDEIKQPVIDAIAEYFGWTEEEKAQQTKRLEALIAESDLRELKGEK	soluble
MRGSHHHHHHGSAELHLESRGGSGTQLRDGAKVATGRIICREAHTGFHVWMNERQVDGRAERYVVQSKDGRHELRVRTGGDGWSPVKGEGGKGVSRPGQEEQVFFDVMADGNQDIAPGEYRFSVGGACVVPQEDNKQGFTPSGTTGTTKLTVT	soluble
MRGSHHHHHHGSMGKGITGFDPSLYSYLQSISADDSFYLAQLRRETAHLPGAPMQISPEQAQFLGLLISLTGAKQVLEIGVFRGYSALAMALQLPPDGQIIACDQDPNATAIAKKYWQKAGVAEKISLRLGPALATLEQLTQGKPLPEFDLIFIDADKRNYPRYYEIGLNLLRRGGLMVIDNVLWHGKVTEVDPQEAQTQVLQQFNRDLAQDERVRISVIPLGDGMTLALKK	soluble
MRGSHHHHHHTDPALRADYRKIIKEIGRGKNHARDLDRDTARGLYAHMLNGEVPDLELGGVLIALRIKGEGEAEMLGFYEAMQNHTIKLTPPAGKPMPIVIPSYNGARKQANLTPLLAILLHKLGFPVVVHGVSEDPTRVLTETIFELMGITPTLHGGQAQAKLDEHQPVFMPVGAFCPPLEKQLAMRWRMGVRNSAHTLAKLATPFAEGEALRLSSVSHPEYIGRVAKFFSDIGGRALLMHGTEGEVYANPQRCPQINLIDREGMRVLYEKQDTAGSELLPQAKDPETTAQWIERCLAGSEPIPESLKIQMACCLVATGEAATISDGLARVNQAFGLCGR	soluble
MRGSHHHHHHTDPALRASSNTFTLGTKSVNRLGYGAMQLAGPGVFGPPRDRHVAITVLREALALGVNHIDTSDFYGPHVTNQIIREALYPYSDDLTIVTKIGARRGEDASWLPAFSPAELQKAVHDNLRNLGLDVLDVVNLRVMMGDGHGPAEGSIEASLTVLAEMQQQGLVKHIGLSNVTPTQVAEARKIAEIVCVQNEYNIAHRADDAMIDALAHDGIAYVPFFPLGGFTPLQSSTLSDVAASLGATPMQVALAWLLQRSPNILLIPGTSSVAHLRENMAAEKLHLSEEVLSTLDGISREGLCGR	soluble
MRHAKSAYPDGIADHDRPLAPRGIREAGLAGGWLRANLPAVDAVLCSTATRARQTLAHTGIDAPARYAERLYGAAPGTVIEEINRVGDNVTTLLVVGHEPTTSALAIVLASISGTDAAVAERISEKFPTSGIAVLRVAGHWADVEPGCAALVGFHVPR	soluble
MRHGCHTVIASRSLPRVLTAARKLAGATGRRCLPLSMDVRAPPAVMAAVDQALKEFGRIDILINCAAGNFLCPAGALSFNAFKTVMDIDTSGTFNVSRVLYEKFFRDHGGVIVNITATLGNRGQALQVHAGSAKAAVDAMTRHLAVEWGPQNIRVNSLAPGPISGTEGLRRLGGPQASLSTKVTASPLQRLGNKTEIAHSVLYLASPLASYVTGAVLVADGGAWLTFPNGVKGLPDFASFSAKL	not soluble
MRHISIFGTSSDAGKSTLTFVIAKILQRAGIRVAPFKAQNVSNNARVCDDGSEIAIAQSFQAEVLAIPTSYHLNPILLKSGINGQASVIVEGQVISQQDVLEYYRDLDTLKPAVQRCFETLAKMYDCIVAEGAGSPVELNLMDKDLSNIFIAKHYQTKIILVADIEKGGVFASVWGTYNLLPADLRSNVIGVIINKFRGDLSLFDEGIRIIEQAFKIPVLGVLPYMPFNLGFEDNASLQNFVQQPRQKKLKIGVIAYPYMSNYNDFEPLIADDEVLLEFINSPISLEHFDGVILPGSKLVIEDLHWLKTNGLFEQLQQRRKPIFAICGGYEMLFEQLHDPERIENLEPTTATGLGLIDDEIYFAKNKILNKAEYPIFGLNIAGFEMHHGISQKYPLYFQKDNIQGTFIHQVFDHNAFRTQYLRAICAQYQGFDFQLYKTEQINNFIEACRKRLNVKLILEAIQDQ	not soluble
MRHLKSFYVFHVAASSSSYTEAADKLNITHGAVSKQIKQLEQYLSQPLFLKEGRKSVLTAEGELLKTYTKTAFQTLETGVNTLIQEKHQHLEVSCEPTLTMRWLMPRLAAFNDEHRADVR	not soluble
MRHPIPDYLASLVTELGAVNPGETAQYIPVLAEADPDRFGIALATPTGRLHCAGDADVEFTIQSASKPFTYAAALVDRGFAAVDRQVGLNPSGEAFNELSLEAESHRPDNAMINAGALAVHQLLVGPEASRKERLDRAVEIMSLLAGRRLSVDWETYESEMAVSDRNLSLAHMLRSYGVLQDSAEEIVAGYVAQCAVLVTVKDLAVMGACLATGGIHPMTGERMLPSIVARRVVSVMTSSGMYDAAGQWLADVGIPAKSGVAGGVLGALPGRVGIGVFSPRLDEVGNSARGVLACRRLSEDFRLHLMDGDSLGGTAVRFVEREGDRVFLHLQGVIRFGGAEAVLDALTDLRTGAEKPGTGWDAAVYPRWQEAAADRAALSAATGGGAVHEAAAAAARDENDGPIRTVVLNLARVDRIDDVGRRLIAEGVRRLQADGVRVEVEDPERILPLEEAGAH	soluble
